How the values were obtained:
[1] = biological target: T1, native non-modified collagen type II (CII) (bovine, UniProt P02459 201-1214); assay: ELISA, purified scFv on coated antigen
T1 construct: also called native CII
Description: (§1) Screening for positive anti-modified CII phage clones was first performed by enzyme-linked immunosorbent assay (ELISA), as previously described (Harrison J. L, 1996). Microtiter plate (Nunc, Paisley, UK) wells were coated with 10 μg/ml native or modified CII and incubated with 100 μl phage suspension for 90 minutes. In addition, native and modified BSA were used as negative control. After removal of the supernatants, the amount of bound phage was determined using peroxidase-labeled anti-M13 antibodies (GE Healthcare: Ltd, Little Chalfont, Buckinghamshire) and developed by using 100 mM 3,3′5,5′ tetramethylbenzidine (TMB) as substrate. The reaction was monitored in an ELISA reader at 450 nm with a reference wavelength of 650 nm using GENios plate reader (TECAN, Theale Court, Reading UK) and Magellan software (TECAN, Theale Court, Reading UK)
(§2) The reactive phage clones obtained from E. coli TG-1 bacteria were used to infect E. coli HB2151 non-suppressor bacterial strain to obtain soluble scFv. […] Binding of purified scFv to modified CII was first analyzed by ELISA as above except that mouse anti-myc tag antibody (Santa Cruz Biotechnology, INC, Wembley, UK) followed by anti-mouse-HRP conjugate (Sigma, Dorset, UK) were used to probe bound scFv.

HOCl modified CII = biological target: T2, HOCl modified CII (bovine, UniProt P02459 201-1214, modified with HOCl; residues not stated); assay: ELISA, purified scFv on coated antigen
T2 construct: also called HOCl-CII; HOCl-Collagen II
Description: as §1, §2

ribose-modified CII = biological target: T3, ribose-modified CII (bovine, UniProt P02459 201-1214, glycated with 2M ribose, overnight at 37 C; residues not stated); assay: ELISA, purified scFv on coated antigen
T3 construct: also called Ribose-CII; glycated CII
Description: as §1, §2

peroxynitrated CII = biological target: T4, peroxynitrated CII (bovine, UniProt P02459 201-1214, modified with peroxynitrite (ONOO); residues not stated); assay: ELISA, purified scFv on coated antigen
T4 construct: also called CII modified with ONOO; peroxynitrite-modified CII
Description: as §1, §2

[2] = biological target: T5, free radical modified BSA (bovine, UniProt P02769 25-607, modified as CII (OH, HOCl, ONOO or 2M ribose); residues not stated); assay: ELISA (data not shown)
T5 construct: Written as printed, as one entry

[3] = biological target: T6, native bovine serum albumin (bovine, UniProt P02769 25-607); assay: ELISA (data not shown)
T6 construct: Control antigen; also called BSA; native BSA

Measured: binding result

T5 sequence (P02769 25-607 limits assumed): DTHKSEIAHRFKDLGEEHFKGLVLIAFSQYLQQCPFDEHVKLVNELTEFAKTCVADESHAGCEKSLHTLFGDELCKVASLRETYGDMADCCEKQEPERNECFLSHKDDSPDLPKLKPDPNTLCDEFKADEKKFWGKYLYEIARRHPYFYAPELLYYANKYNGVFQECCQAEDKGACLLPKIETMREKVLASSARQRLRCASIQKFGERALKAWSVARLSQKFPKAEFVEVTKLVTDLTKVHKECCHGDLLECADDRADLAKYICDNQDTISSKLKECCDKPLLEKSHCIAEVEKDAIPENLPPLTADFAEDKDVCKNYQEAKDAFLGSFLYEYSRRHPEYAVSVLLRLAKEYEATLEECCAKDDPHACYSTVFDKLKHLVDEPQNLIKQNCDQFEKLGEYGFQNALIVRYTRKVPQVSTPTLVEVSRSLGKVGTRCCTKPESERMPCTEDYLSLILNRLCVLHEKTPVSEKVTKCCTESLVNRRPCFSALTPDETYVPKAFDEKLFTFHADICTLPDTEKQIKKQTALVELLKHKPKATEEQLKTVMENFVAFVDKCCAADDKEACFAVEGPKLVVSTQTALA
T6 sequence (P02769 25-607 limits assumed): as above
T2 sequence (P02459 201-1214): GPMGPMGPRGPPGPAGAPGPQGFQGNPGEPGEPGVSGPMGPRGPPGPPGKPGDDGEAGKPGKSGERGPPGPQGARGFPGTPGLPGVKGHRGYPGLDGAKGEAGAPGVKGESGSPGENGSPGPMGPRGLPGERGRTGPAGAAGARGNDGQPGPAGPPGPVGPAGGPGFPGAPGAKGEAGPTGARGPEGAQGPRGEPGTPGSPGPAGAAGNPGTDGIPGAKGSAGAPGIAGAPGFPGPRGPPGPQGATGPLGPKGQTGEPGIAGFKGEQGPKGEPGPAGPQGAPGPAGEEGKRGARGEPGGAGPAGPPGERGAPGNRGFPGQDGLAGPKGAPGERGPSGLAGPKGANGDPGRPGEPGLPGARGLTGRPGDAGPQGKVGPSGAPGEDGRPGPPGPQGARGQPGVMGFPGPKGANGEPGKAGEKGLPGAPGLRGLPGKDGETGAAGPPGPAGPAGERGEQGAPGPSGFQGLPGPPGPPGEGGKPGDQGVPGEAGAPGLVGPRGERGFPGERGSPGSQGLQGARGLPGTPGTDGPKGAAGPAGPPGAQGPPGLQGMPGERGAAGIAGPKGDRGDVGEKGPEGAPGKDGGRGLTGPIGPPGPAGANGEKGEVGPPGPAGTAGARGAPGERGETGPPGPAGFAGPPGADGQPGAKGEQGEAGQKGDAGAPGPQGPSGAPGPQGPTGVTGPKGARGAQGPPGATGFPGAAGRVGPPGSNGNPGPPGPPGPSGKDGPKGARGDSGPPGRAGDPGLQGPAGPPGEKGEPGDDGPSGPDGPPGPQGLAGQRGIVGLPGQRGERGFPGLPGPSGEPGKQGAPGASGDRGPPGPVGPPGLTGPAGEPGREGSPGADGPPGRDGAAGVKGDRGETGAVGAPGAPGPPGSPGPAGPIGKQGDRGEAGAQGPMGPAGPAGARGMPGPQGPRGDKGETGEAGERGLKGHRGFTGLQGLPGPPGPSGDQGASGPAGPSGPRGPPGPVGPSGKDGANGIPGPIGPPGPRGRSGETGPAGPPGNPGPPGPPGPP
T4 sequence (P02459 201-1214): as above
T1 sequence (P02459 201-1214): as above
T3 sequence (P02459 201-1214): as above

B1: scFv 12E (scFv, not shown: small tags and cut ends)
scFv: EVQLLESGGGLVQPGGSLRLSCAASGFTFSSYAMSWVRQAPGKGLEWVSSINDSGTTTYYADSVKGRFTISRDNSKNTLYLQMNSLRAEDTAVYYCAKNYSAFDYWGQGTLVTVSSGGGGSGGGGSGGGGSTDIQMTQSPSSLSASVGDRVTITCRASQSISSYLNWYQQKPGKAPKLLIYAASDLQSGVPSRFSGSGSGTDFTLTISSLQPEDFATYYCQQSDSAPTTFGQGTKVEIKR
notes: Purified soluble scFv; also called clone 12E
no binding: all assays above

B2: scFv 6-11D (scFv, not shown: small tags and cut ends)
scFv: EVQLLESGGGLVQPGGSLRLSCAASGFTFSSYAMSWVRQAPGKGLEWVSSIDTGGSYTDYADSVKGRFTISRDNSKNTLYLQMNSLRAEDTAVYYCAKSYTTFDYWGQGTLVTVSSGGGGSGGGGSGGGGSTDIQMTQSPSSLSASVGDRVTITCRASQSISSYLNWYQQKPGKAPKLLIYSASYLQSGVPSRFSGSGSGTDFTLTISSLQPEDFATYYCQQGSNSPTTFGQGTKVEIKR
notes: also called clone 6-11D; 4-5H
no binding: [2] | [3]

B3: scFv 1-11E (scFv, not shown: large carriers; small tags and cut ends)
scFv: EVQLLESGGGLVQPGGSLRLSCAASGFTFSSYAMSWVRQAPGKGLEWVSSIDDSGATTYYADSVKGRFTISRDNSKNTLYLQMNSLRAEDTAVYYCAKNYSSFDYWGQGTLVTVSSGGGGSGGGGSGGGGSTDIQMTQSPSSLSASVGDRVTITCRASQSISSYLNWYQQKPGKAPKLLIYYASSLQSGVPSRFSGSGSGTDFTLTISSLQPEDFATYYCQQAANYPTTFGQGTKVEIK
notes: its first MA and last DI may come from cloning into the fusion; also called clone 1-11E; 1-2F
no binding: [2] | [3]

From patent US20160228570A1 (QUEEN MARY AND WESTFIELD COLLEGE, published 2016)
